# In US20160185837A1 (Medimmune Limited, priority 2013, published 2016):
# pEC50: −log10 of the molar value. Where two headings read alike, the source gives them in different places.
# Key:
# Type in all cases: cell-based
# [1] = target: T1, human GIP receptor (hGIPr) (Homo sapiens, UniProt P48546); experiment: BSA-cAMP assay, cells expressing human GIP receptor; conditions: BSA-cAMP assay, read-out: hGIPr cAMP activity EC50
# T1 construct: expressed in transfected cells
# T1 sequence (P48546 22-466): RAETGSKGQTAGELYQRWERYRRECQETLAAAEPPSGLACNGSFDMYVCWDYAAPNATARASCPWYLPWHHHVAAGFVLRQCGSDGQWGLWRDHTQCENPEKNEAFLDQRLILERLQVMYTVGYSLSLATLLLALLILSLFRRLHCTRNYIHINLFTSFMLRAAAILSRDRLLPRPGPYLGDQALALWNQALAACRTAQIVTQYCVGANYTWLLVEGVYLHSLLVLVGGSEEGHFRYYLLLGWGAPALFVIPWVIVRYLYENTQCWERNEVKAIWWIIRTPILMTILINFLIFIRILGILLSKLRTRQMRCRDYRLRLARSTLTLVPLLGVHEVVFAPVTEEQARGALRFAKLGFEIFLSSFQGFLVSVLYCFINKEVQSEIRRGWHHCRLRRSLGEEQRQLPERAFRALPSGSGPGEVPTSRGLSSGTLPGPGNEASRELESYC
# Method in brief: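 EC50 came from an unconstrained 4-parameter logistic fit of HTRF cAMP data expressed as percent of maximal native agonist activation, tested on two occasions. Thawed receptor-expressing cells (hGLP-1r, hGIPr at 0.5×10^5 cells/ml) treated 30 min at room temperature in 0.1% BSA-containing medium; two distinct hGIPr lines.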
# [2] = target: T2, rat GLP-1 receptor (rGLP-1r) (Rattus norvegicus, UniProt P32301); experiment: BSA-cAMP assay, cells expressing rat GLP-1 receptor; conditions: BSA-cAMP assay, read-out: rGLP1r cAMP activity EC50
# T2 construct: expressed in transfected cells; host or cells: HEK293s or CHO cells
# T2 sequence (P32301 22-463): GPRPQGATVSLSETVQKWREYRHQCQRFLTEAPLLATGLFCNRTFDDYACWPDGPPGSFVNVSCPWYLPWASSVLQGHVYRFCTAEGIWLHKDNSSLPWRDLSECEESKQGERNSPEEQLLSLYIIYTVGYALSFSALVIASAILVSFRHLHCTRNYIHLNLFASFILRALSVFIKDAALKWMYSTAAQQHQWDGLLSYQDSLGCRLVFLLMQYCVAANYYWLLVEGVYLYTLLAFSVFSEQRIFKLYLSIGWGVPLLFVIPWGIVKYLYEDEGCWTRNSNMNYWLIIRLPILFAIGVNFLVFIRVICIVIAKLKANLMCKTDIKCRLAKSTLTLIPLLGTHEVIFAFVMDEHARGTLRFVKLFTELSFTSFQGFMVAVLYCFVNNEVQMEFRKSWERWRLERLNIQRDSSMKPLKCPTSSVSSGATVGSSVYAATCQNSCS
# Method in brief: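 EC50 is the midpoint of an unconstrained 4-parameter logistic fit to HTRF cAMP data, expressed as percent of maximal native agonist response, from two separate occasions. Rodent (mouse, rat) GLP-1R- or GIPR-expressing cells were incubated with compound 30 min at room temperature in 0.1% BSA medium, in duplicate.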
# [3] = target: T3, hGIPr (C3) (Homo sapiens, UniProt P48546); experiment: BSA-cAMP assay, second human GIPr cell line hGIPr (C3); conditions: Batch 1, second hGIPr cell line, read-out: hGIPr (C3) cAMP activity EC50
# T3 construct: expressed in transfected cells
# T3 sequence (P48546 22-466): T1 sequence (P48546 22-466)
# Method: For human GIPr, two different lines were used, shown as “hGIPr” and “hGIPr (C3)” in Table 11. Peptide activation of these various receptors results in downstream production of cAMP second messenger that can be measured in a functional activity assay.
# One basic cAMP assays was performed, differing in the medium used for the assay, the “BSA-cAMP assay”:
# BSA-based assay medium: 0.1% bovine serum albumin (BSA) in
# Hanks Balanced Salt Solution (GIBCO or Sigma), containing 0.5 mM IBMX (Sigma #17018);
# In certain aspects, the assay can also be carried out in medium supplemented with serum albumin that corresponds to the receptor being tested, e.g., human serum albumin for testing cAMP activity at hGIPr or hGLP-1r, rat serum albumin for testing cAMP activity at rGIPr or rGLP-1r, and so on. […]
# cAMP levels were measured using a commercially available cAMP dynamic 2 HTRF kit (Cisbio, Cat #62AM4PEJ), following the two step protocol as per manufacturer's recommendations. […] Plates were incubated at room temperature for one hour and then read on an Envision (Perkin Elmer) using excitation wavelength of 320 nm and emission wavelengths of 620 nm & 665 nm. Data was transformed to % Delta F as described in manufacturer's guidelines and then transformed to percent activation of maximal native agonist response and analysed by 4-parameter logistic fit to determine EC50 values. […]
pEC50 ([1]; Batch 1),pEC50 ([1]; Batch 2),pEC50 ([2]; Batch 1),pEC50 ([2]; Batch 2),pEC50 [3],Substance
8.02,7.36,6.89,–,–,IP320 (YSEGTFTSDYAAAAEAAAAAAFAAWLAAAAGGGGGSGGGGSGGGGSGGGGSACPPC)
11.03,–,10.24,11.00,–,IP396 (YSEGTFTSDYSKLLERQAIDEFIAWLLKGGGGGGGSGGGGSGGGGSGGGGSACPPC)
–,–,–,–,8.89,"IP412: Fc fusion, IgG1-TM, SEQ ID NO:387; agonist peptide YSEGTFTSDYSKLLEEEANRLFIEWLLAGG (YSEGTFTSDYSKLLEEEANRLFIEWLLAGGGGGGSGGGGSGGGGSGGGGSATHTCPPC)"
